# Paper PMC8079656, “The msaABCR Operon Regulates Persister Formation by Modulating Energy Metabolism in Staphylococcus aureus”
# B1: gudB promoter probe (gudB_EMSA) (dsDNA)
# DNA 1: GGAAATTCAATATGTTTGAAAGCGAATCATTAGGTAAAGAAGAGGCGAAAAGGATC
# DNA 2: GATCCTTTTCGCCTCTTCTTTACCTAATGATTCGCTTTCAAACATATTGAATTTCC
# B2: ndh2 ssDNA probe (ndh2_EMSA) (ssDNA)
# DNA: GTCTTTTTTGTGAACATCACAGGTTTTTACATAATTTAAAAGACTTAAATAACAAAATGATGATAAACTAGTATA
# B3: ndh2 dsDNA, same region (dsDNA)
# DNA 1: GTCTTTTTTGTGAACATCACAGGTTTTTACATAATTTAAAAGACTTAAATAACAAAATGATGATAAACTAGTATA
# DNA 2: TATACTAGTTTATCATCATTTTGTTATTTAAGTCTTTTAAATTATGTAAAAACCTGTGATGTTCACAAAAAAGAC
# B4: ccpE promoter probe (ccpE_EMSA) (dsDNA)
# DNA 1: GTTAGTAATGAACTCATGAATGCTTGTGCCATGAAAGTTCAATAATTGAATAATTTATGGGG
# DNA 2: CCCCATAAATTATTCAATTATTGAACTTTCATGGCACAAGCATTCATGAGTTCATTACTAAC
# How the values were obtained:
# MsaB-His [1] = molecular target: T1, MsaB-His (Staphylococcus aureus USA300 LAC, UniProt Q2FH36 1-66); assay: EMSA; 5 mM MgCl2, poly(dI-dC); conditions: protein: recombinant, tags: 6xHis, blunt
# T1 sequence: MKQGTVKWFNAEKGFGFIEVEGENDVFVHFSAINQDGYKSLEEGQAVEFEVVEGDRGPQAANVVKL
# MsaB-His [2] = molecular target: T1, MsaB-His; assay: EMSA; 5 mM MgCl2, poly(dI-dC); shift reduced by 100-fold unlabeled probe; conditions: protein: recombinant; tags: 6xHis; label: biotin (5')
# MsaB-His [3] = molecular target: T1, MsaB-His; assay: EMSA; 5 mM MgCl2, poly(dI-dC); shift reversed by 100-fold unlabeled probe; conditions: protein: recombinant; tags: 6xHis; label: biotin (5'); blunt
binder,measurement,setting,value
B1,binding result,MsaB-His [1]; label: biotin (5'),no binding
B2,binding result,MsaB-His [2],binds
B3,binding result,MsaB-His [1],no binding
B4,binding result,MsaB-His [3],binds
